Assay: soluble on expression in E. coli; label from the status in PepcDB or PDB records

Sequence	soluble on expression in E. coli
MHHHHHHMKNVIFEDEEKSKMLARLLKSSHPEDLRAANKLIKEMVQEDQKRMEKISKRVNAIEEVNNNVKLLTEMVMSHSQGGAAAGSSEDLMKELYQRCERMRPTLFRLASDTEDNDEALAEILQANDNLTQVINLYKQLVRGEEVNGDATAGSIPG	soluble
AVVNTDDYVTRTSIFYHAGSSRLLTVGDPYFRVPAGGGNKQDIPKVSAYQYRVFRVQLPDPNKFGLPDTSIYNPETQRLVWACAGVEIGRGQPLGVGLSGHPFYNKLDDTESSHAATSNVSEDVRDNVSVDYKQTQLCILGCAPAIGEHWAKGTASKSRPLSQGDCPPLELKNTVLEDGDMVDTGYGAMDFSTLQDTKCEVPLDICQSICKYPDYLQMSADPYGDSMFFCLRREQLFARHFWNRAGTMGDTVPQSLYIKGTGMRASPGSCVYSPSPSGSIVTSDSQLFNKPYWLHKAQGHNNGVCWHNQLFVTVVDTTRSTNLTICASTQSPVPGQYDATKFKQYSRHVEEYDLQFIFQLCTITLTADVMSYIQSMNSSILEDWNGGSGGNKDPYDKLKFWNVDLKEKFSLDLDQYPLGRKFLVQAGL	soluble
MGSDKIHHHHHHMKRENLHQPFEICFSELDESQLKEHDHTFFELVYILSGTGIQWINNNKFPYHDGHLFMITPGDIHSFDIHTTTKFVYIKFNDIYIHSAVFGAENIQRLEFILQHANHRPGCILRNQTDKLLVKPMIEAIIREYVNRNIYSSEIITQLINTIVIVVARNIAMFLPEQIDENSEEKSLNILQYIQSNICYPEKIKAKAISQHFGISPNYLGRYFKKQTNETMQQYILNYKMKMVESRLLHSEMRISEIVEELGFTDESHLNRLFKKYKDCNPTDFRKKHRGQ	not soluble
SAPAQEHPEATVLFSDIVGFTEIASRSSPLEVCSLLDELYQRFDAAIEEYPQLYKVETIGDAYMVVCNVTVPCDDHADVLLEFALRMHEEASRVASSLGEPVRIRVGMHSGPVVAGVVGRKMPRFCLFGDTVNTASRMESHGEAGQIHISEACYCCLRSKERFEIRERGNITVKGKGTMRTYLLSPLERT	soluble
MTDLPLTGRARPDRRPHTLAEWRAEGGYEAVDRARSMAPAEIIDMVEAAHLNGRGGAGFPAGRKWRFMPERGTSPGEGPSYLIVNGDEMEPGAFKDRFLLEALPHQVIEGAIITARATHADEAIVLIRDEYRPGIAAVERAIHEARDAGLLGDLAIRVHPSAGRYIVGEETALITALEGHRAVPRKRPPFPAQSGLWGRPTTVNNVETISLVPHILSLGPQRFRALSRTEEGGTKLYGVSGRVKRPGLFEAPMGTTARELIERAGGVSGDGQLRAFQPGGGASGFFGPDRLDLPLDFGHVAKAGSMFGTGMLIVLDGTACPVGFLARHMRFYARESCGWCTPCREGLPLVAKILDRFAAGQGRRADLELLQMTAAEAAPRGRSFCDLMGGAMAPLASGLSMFAAEFEARLAEGERALEHHHHHH	not soluble
MKSVFVESTIFEKYRDEYLSDEEYRLFQAELMLNPKLGDVIQGTGGLRKIRVASKGKGKRGGSRIIYYFLDEKRRFYLLTIYGKNEMSDLNANQRKQLMAFMEAWRNEQS	not soluble
MRIEVKLLPLKDNPILPFNYNYEVYSQILEKVNSIEPTIAKLLSSPHGFWTFSRIIVRKRKILPDKGIEILSDDVSLYISSSNEDIIRAIAEAVEKSPEFKIGELSFLVGDIKAIKVKELGKENVFSTLSPIVVRTVKFEGNKLRHWDLYPHDELFMDRLRKVMILRYSEVMGETPKDRDFTIEVLKFKPTRLMVGSSYIRGSLMVFRYAGSEEIARFGYENGFGEKTGLGFGMVKLIE	soluble
NGVPSTNVNTPAPNTGQSTAQNTNTASPLPYNRATTLPAAGTEDLKKSVQALQNTLTELQALQLQTKQAHWNVSGTLWYTLHELLQDHYEGISKFADDVAERQLSVGASSDGRAITIVAASRLPEIPGGFLDDAQVIQFFTYQYETVGQRIHQRVGDVEKVDPTTANLLQEVEHIIEKYQWQMRAFLQNTPTDPNTGFDINNGKPVPLRGR	soluble
NRYAKLCMEREINKRTVLMQEMELENYKKINQANDKYMELLHNSNHYMRTVYGLLEQDNKDEAINIMDSVLTEYEEGELIEYSTNSILNTILSEYYDKSKTNHIEFNIFVEPGFNIECVESMDLVAMVSNLISNAYEAALKSDEKKIKVQMYMQNDGSFIIIKIENSFSGEIVSQGDRLLTTKKDGNIHGVGIESVEKVAEKYDGWVSTSWGNKSFRTMLVLNNSYVV	not soluble
RALIGRLPDGRADLLENFAAGPGLAQRFGERYPEHAGRDLRFIMELYHAGDTHARDYITATLAAAGETIAGFASAIDVDAIIIGGGVGNIGDAIIKPFAHGFAAHAIPPLDTIPIRQAQLGTDAPIVGAAHLGHSAIE	not soluble
MRITQEQAEAIFCEDLKQFGKTVEQSVKVCLTDAQIAALVSFCYNVETQAFCKSTLLKKLNNGAYESVPAELQKWNKVGGKAIQGFVNRRAAEAGLWAKGSYVCFNTQRVETKNTIGLLKIETLAPMIGSCSGLGGLLVGNGPLPALWF	not soluble
MGSDKIHHHHHHMVLLILKFHGESVKIKPECAICIIRQVVDAANEITDDEREQFRLIKSTMEVIKDVYGESAVPAWMGTVVHRYLKKISNNNDPYKNLKEKANKIALQYLDKVREMSNTDDELERLRKKVLATIAGNVIDFGAYSTGINIEKLIEDTLNGELKIDNSRKLLNDLKDKNIKKILYICDNAGEIIFDRVLMEEIKKYDKDIVAVVKGKPILNDATLEDAKIAKIDEIAKVITTGSDIIGIILEECSEEFLKEFESADLIIAKGMGNYESLTEYEDKIDKPIYYILKAKCKPVAENIGVDVGDNVLLKR	not soluble
MVIVINYKTYNESIGNRGLEIAKIAEKVSEESGITIGVAPQFVDLRMIVENVNIPVYAQHIDNINPGSHTGHILAEAIKDCGCKGTLINHSEKRMLLADIEAVINKCKNLGLETIVCTNNINTSKAVAALSPDCIAVEPPELIGTGIPVSKANPEVVEGTVRAVKEINKDVKVLCGAGISKGEDVKAALDLGAEGVLLASGVVKAKNVEEAIRELIKFI	soluble
GSFIDIEFPEWFHEGLSRHQAENLLMGKDIGFFIIRASQSSPGDFSISVRHEDDVQHFKVMRDTKGNYFLWTEKFPSLNKLVDYYRTTSISKQKQVFLRD	soluble
AAQAEREELAAGRMPGGGPQGAPAAAGGGGVSHRAGSRDCLPPAACFRRRRLARRPGYMRSSTGPGIGFLSPAVGTLFRFPGGVSGEESHHSESRARQCGLDSRGLLVRSPVSKSAAAPTVTSVRGTSAHFGIQLRGGTRLPDRLSWPCGPGSAGWQQEFAAMDSSETLDASWEAACSDGARRVRAAGSLPSAELSSNSCSPGCGPEVPPTPPGSHSAFTSSFSFIRLSLGSAGERGEAEGCPPSREAESHCQSPQEMGAKAASLDGPHEDPRCLSQPFSLLATRVSADLAQAARNSSRPERDMHSLPDMDPGSSSSLDPSLAGCGGDGSSGSGDAHSWDTLLRKWEPVLRDCLLRNRRQMEVISLRLKLQKLQEDAVENDDYDKAETLQQRLEDLEQEKISLHFQLPSRQPALSSFLGHLAAQVQAALRRGATQQASGDDTHTPLRMEPRLLEPTAQDSLHVSITRRDWLLQEKQQLQKEIEALQARMFVLEAKDQQLRREIEEQEQQLQWQGCDLTPLVGQLSLGQLQEVSKALQDTLASAGQIPFHAEPPETIRSLQERIKSLNLSLKEITTKVCMSEKFCSTLRKKVNDIETQLPALLEAKMHAISGNHFWTAKDLTEEIRSLTSEREGLEGLLSKLLVLSSRNVKKLGSVKEDYNRLRREVEHQETAYETSVKENTMKYMETLKNKLCSCKCPLLGKVWEADLEACRLLIQSLQLQEARGSLSVEDERQMDDLEGAAPPIPPRLHSEDKRKTPLKESYILSAELGEKCEDIGKKLLYLEDQLHTAIHSHDEDLIQSLRRELQMVKETLQAMILQLQPAKEAGEREAAASCMTAGVHEAQA	soluble
MSGRLIGKVALVSGGARGMGASHVRAMVAEGAKVVFGDILDEEGKAVAAELADAARYVHLDVTQPAQWTAAVDTAVTAFGGLHVLVNNAGILNIGTIEDYALTEWQRILDVNLTGVFLGIRAVVKPMKEAGRGSIINISSIEGLAGTVACHGYTATKFAVRGLTKSTALELGPSGIRVNSIHPGLVKTPMTDWVPEDIFQTALGRAAEPVEVSNLVVYLASDESSYSTGAEFVVDGGTVAGLAHNDFGAVEVSSQPEWVT	not soluble
GSNRSLIVTTILEEPYVLFKKSDKPLYGNDRFEGYCIDLLRELSTILGFTYEIRLVEDGKYGAQDDVNGQWNGMVRELIDHKADLAVAPLAITCVREKVIDFSKPFMTLGISILYRKGTPIDSADDLAKQTKIEYGAVEDGATMTFFKKSKISTYDKMWAFMSSRRQSVLVKSNEEGIQRVLTSDYAFLMESTTIEFVTQRNCNLTQIGGLIDSKGYGVGTPMGSPYRDKITIAICQLQEEGKLHMMKEKWWRGNGCPS	soluble
MVAEVCSMPTASTVKKPFDLRSKMGKWCHHRFPCCRGSGKSNMGTSGDHDDSFMKMLRSKMGKCCRHCFPCCRGSGTSNVGTSGDHENSFMKMLRSKMGKWCCHCFPCCRGSSKSNVGAWGDYDHSAFMEPRYHVRREDLDKLHRAAWWGKVPRKDLIVMLRDTDMNKRDKEKRTALHLASANGNSEVVQLLLDRRCQLNVLDNKKRTALIKAVQCQEDECVLMLLEHGADRNIPDEYGNTALHYAIYNEDKLMAKALLLYGADIESKNKV	not soluble
MEENNKILIYTDSEGLTKIDVILEDETLWLTQAQMCELYQTSKSNVSEHIKHIFEEGELQEDSVVRKFRTTASDGKSYMTAYYNLDMIIALGYRIRSIIATRFRQWATQRLKEYMIKGFALDDERLKQLGGGGYWKELLERIRDIRATEKVLYRQVLEIYATSIDYDPRASVSQEFFKKVQNKIHYAIHGHTAAELIVERADAEKDFMGLLTFKGNQPTLSEARTAKNYLDEKELRAMGQLVSGYLDFAERQAEREQPMTMNDWANYLDRILTMSGEQLLLDSGKVSHTEAMEHATNEYRKYKQRTISDVEQDYLDSIKRIGNIGKKGDKNEN	not soluble
MGSDKIHHHHHHMAIYLEMPKLIHEFPFRSLSNEGEVLTTPHWHKEIEILLITEGVVNLFINDKPMQLKKGEIVIIKGGDIHYILPSPGSERLVFQFDISFFNDLILLNEEKESLINLFSSIKKCSRDWSAKIRKSVFDILIDIYNEDLYKIEGYSYAIKGKMYNLIPILYRQIPREIEENTVEYEINSKEILERLNNIFKYVEKNYKQPIKLEDVSYEVGFSVYYFTKFFKKNTGKTFITFLNEYRLEKAKWILLNNNISIVDLVEEVGFGSTKTFYRVFKEKIGVSPLEFKKRYNSLEKKGSVSK	not soluble
MADDFAYLNARVRVRRGTLLKESFFQEALDLSFADFLRLLSETVYGGELAGQGLPDVDRAVLRTQAKLVGDLPRLVTGEAREAVRLLLLRNDLHNLQALLRAKATGRPFEEVLLLPGTLREEVWRQAYEAQDPAGMAQVLAVPGHPLARALRAVLRETQDLARVEALLAKRFFEDVAKAAKGLDQPALRDYLALEVDAENLRTAFKLQGSGLAPDAFFLKGGRFVDRVRFARLMEGDYAVLDELSGTPFSGLSGVRDLKALERGLRCVLLKEAKKGVQDPLGVGLVLAYVKEREWEAVRLRLLARRAYFGLPRAQVEEEVVCP	soluble

From the DeepSol protein solubility set
